We go through one molecule from PMC6613789.

The target of this data set is apoE4 (UniProt P02649 19-317, C130R). The experiment in a line: EMSA. (In general: In EMSA bound probe runs differently from free probe, usually more slowly.)
Chain of apoE4 (P02649 19-317 C130R): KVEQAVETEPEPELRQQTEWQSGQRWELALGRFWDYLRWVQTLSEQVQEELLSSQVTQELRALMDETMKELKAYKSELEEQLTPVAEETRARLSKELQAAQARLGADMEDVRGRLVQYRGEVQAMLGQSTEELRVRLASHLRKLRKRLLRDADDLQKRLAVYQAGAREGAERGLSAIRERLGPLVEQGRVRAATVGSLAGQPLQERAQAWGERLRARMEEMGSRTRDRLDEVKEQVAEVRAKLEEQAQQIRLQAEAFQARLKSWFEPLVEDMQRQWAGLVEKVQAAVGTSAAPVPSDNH

B1: CLEAR EMSA probe (dsDNA)
DNA 1: GTAGGTCACGTGACCGGG
DNA 2: CCCGGTCACGTGACCTAC
On to B1, for which the binding result is “binds”.
